From article PMC11276676

Tests used:
Assay in all cases: AUC; sedimentation velocity, absorbance detection, 20 °C, 20 mM Hepes-NaOH with 1 mM TCEP, without (pH 6.79) or with (pH 6.87) 150 mM NaCl, 42,000 rpm, protein 1.30-1.53 and 2.73-5.98 µM; monomer to dimer
[1] = biological target: wild-type Helicobacter pylori adenylosuccinate synthetase (Helicobacter pylori (reference strain 26695)) (UniProt P56137)
[2] = biological target: Helicobacter pylori adenylosuccinate synthetase with His6-tag fused on its N-terminus (Helicobacter pylori (reference strain 26695)) (UniProt P56137)
[3] = biological target: Helicobacter pylori adenylosuccinate synthetase with His6-tag on the C-terminus (Helicobacter pylori (reference strain 26695)) (UniProt P56137)

“wild-type Helicobacter pylori adenylosuccinate synthetase (from UniProt P56137 1-411) (enzyme)” showed a stoichiometry N [1] of 2.
Substance “Helicobacter pylori adenylosuccinate synthetase with His6-tag fused on its N-terminus (from UniProt P56137 1-411) (enzyme)” has a stoichiometry N [2] of 2.
With “Helicobacter pylori adenylosuccinate synthetase with His6-tag on the C-terminus (from UniProt P56137 1-411) (enzyme)” the stoichiometry N [3] was 2.
